The results in this text go back to PMC7897678 (Frontiers in Immunology, 2020).

The target of this test is T1, C1q isolated from mouse serum (mouse, UniProt P98086 23-245; P14106 26-253; Q02105 30-246).
T1 construct: complement C1q subcomponent chain A (C1qA), mouse; complement C1q subcomponent chain B (C1qB), mouse; complement C1q subcomponent chain C (C1qC), mouse; also called purified C1q; copies: 6 + 6 + 6
The test is described as follows: ELISA; NP1, NP2 or PTX3 coated (10 µg/ml in PBS, overnight 4 °C), blocked with 4% BSA in PBS-T; C1q 5.6–45 µg/ml in PBS, 1 h at RT; bound C1q detected with anti-C1qb antibody. Particulars: both partners purified. On the technique in general: ELISA stands for enzyme-linked immunosorbent assay.

T1 sequence (P98086 23-245, chain 1 of 3): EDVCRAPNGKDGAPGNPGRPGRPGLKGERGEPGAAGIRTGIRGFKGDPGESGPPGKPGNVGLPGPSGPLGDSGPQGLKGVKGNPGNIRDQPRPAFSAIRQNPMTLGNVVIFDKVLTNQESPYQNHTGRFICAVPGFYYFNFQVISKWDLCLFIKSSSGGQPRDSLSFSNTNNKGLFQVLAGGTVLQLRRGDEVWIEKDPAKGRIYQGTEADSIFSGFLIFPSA
T1 sequence (P14106 26-253, chain 2 of 3): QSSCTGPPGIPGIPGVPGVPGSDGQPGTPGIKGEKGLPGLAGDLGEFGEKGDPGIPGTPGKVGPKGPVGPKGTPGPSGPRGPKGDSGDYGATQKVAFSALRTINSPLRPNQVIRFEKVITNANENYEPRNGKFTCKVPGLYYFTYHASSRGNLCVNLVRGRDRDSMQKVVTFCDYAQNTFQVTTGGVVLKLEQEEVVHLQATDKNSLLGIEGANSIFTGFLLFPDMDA
T1 sequence (Q02105 30-246, chain 3 of 3): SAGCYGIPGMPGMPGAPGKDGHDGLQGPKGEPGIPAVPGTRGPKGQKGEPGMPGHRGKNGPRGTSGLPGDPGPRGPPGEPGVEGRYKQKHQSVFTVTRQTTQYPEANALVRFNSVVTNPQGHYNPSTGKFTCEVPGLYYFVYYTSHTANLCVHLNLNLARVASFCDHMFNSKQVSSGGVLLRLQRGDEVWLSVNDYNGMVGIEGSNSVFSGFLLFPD

B1: Recombinant human His-tagged neuronal pentraxin 1 (natural protein, UniProt Q15818 23-432, looked up)
chain: QDFGPTRFICTSVPVDADMCAASVAAGGAEELRSSVLQLRETVLQQKETILSQKETIRELTAKLGRCESQSTLDPGAGEARAGGGRKQPGSGKNTMGDLSRTPAAETLSQLGQTLQSLKTRLENLEQYSRLNSSSQTNSLKDLLQSKIDELERQVLSRVNTLEEGKGGPRNDTEERVKIETALTSLHQRISELEKGQKDNRPGDKFQLTFPLRTNYMYAKVKKSLPEMYAFTVCMWLKSSATPGVGTPFSYAVPGQANELVLIEWGNNPMEILINDKVAKLPFVINDGKWHHICVTWTTRDGVWEAYQDGTQGGSGENLAPYHPIKPQGVLVLGQEQDTLGGGFDATQAFVGELAHFNIWDRKLTPGEVYNLATCSTKALSGNVIAWAESHIEIYGGATKWTFEACRQIN
notes: neuronal pentraxin 1 (NP1), human, recombinant; see the vendor's data sheet; also called NP1; NPs (with NP2); source: bought: R&D Systems (7707-NP-050)
As for B1, the binding result is “binds”.

B2: Recombinant human His-tagged neuronal pentraxin 2 (natural protein, UniProt P47972 16-431, looked up)
chain: GAQDSPAPGSRFVCTALPPEAVHAGCPLPAMPMQGGAQSPEEELRAAVLQLRETVVQQKETLGAQREAIRELTGKLARCEGLAGGKARGAGATGKDTMGDLPRDPGHVVEQLSRSLQTLKDRLESLEHQLRANVSNAGLPGDFREVLQQRLGELERQLLRKVAELEDEKSLLHNETSAHRQKTESTLNALLQRVTELERGNSAFKSPDAFKVSLPLRTNYLYGKIKKTLPELYAFTICLWLRSSASPGIGTPFSYAVPGQANEIVLIEWGNNPIELLINDKVAQLPLFVSDGKWHHICVTWTTRDGMWEAFQDGEKLGTGENLAPWHPIKPGGVLILGQEQDTVGGRFDATQAFVGELSQFNIWDRVLRAQEIVNIANCSTNMPGNIIPWVDNNVDVFGGASKWPVETCEERLLDL
notes: neuronal pentraxin 2 (NP2), human, recombinant; see the vendor's data sheet; also called NP2; NPs (with NP1); source: bought: R&D Systems (7816-NP-050)
With B2, the binding result was “binds”.
